Experimental data: publication PMC7866087, “Evaluation of Computationally Designed Peptides against TWEAK, a Cytokine of the Tumour Necrosis Factor Ligand Family” (International Journal of Molecular Sciences, 2021)

What was measured:
[1] = system: TWEAK-Fn14 signalling pathway, BRV5 cells; experiment: Cell-based screening of pooled peptides, gene expression microarray in TWEAK-stimulated BRV5 cells; parameters: species or system human; settings: 6 h; for BIRC2 expression Z-Score / HSP90B1 expression Z-Score / IL6 expression Z-Score / JUN expression Z-Score / MAP4K4 expression Z-Score / MAPK14 expression Z-Score / NFKB2 expression Z-Score / TNFRSF12A expression Z-Score / TRAF2 expression Z-Score: BRV5 + TWEAK, normalized to NARS2
Procedure: To optimize resources and rationalize the analysis, we ran the screening by pooling the 50 peptides into six groups, i.e., Pool 1 to 6, containing […] peptides each and displaying similar MW (Supplementary Materials Table S1). We monitored the activity of pooled peptides on TWEAK-Fn14 signalling pathways following the design described in Material and Methods. BRV5 cells were cultured in the presence or absence of TWEAK and treated with peptides at different time points.
As a preliminary study, we performed an experiment with 435-P and BRV5 cells to assess the effect on the level of expression on the selected genes in cultures with or without TWEAK (Supplementary Materials Figure S2A). Negative controls without pool 1 peptides were included in the protocol to avoid unspecific biases in the inhibition ratio. To achieve optimal conditions to measure peptide activity, preventing peptide degradation in the culture medium, the effect of peptides was evaluated by priming cultures with peptide every hour (0–5 h), every two hours (0, 2, and 4 h) and every three hours (0 and 3 h). In these experiments, the housekeeping gene NARS2 was used to normalize gene expression.
(§1) Three different cell lines were used in this study: BRV5, MDA-MB 435 (435-P), and HT29. The BRV5 is a highly metastatic brain cell line, obtained in one of our laboratories by primary culture from a brain of a nude mouse inoculated with human 435-Br1 brain metastatic cells, as previously described and used as a model to test the peptides in cell cultures. […] The triple negative 435-P cell line is a useful human breast cancer model that expresses both epithelial and melanocytic markers, and was included as the parental cell from which 435-Br1 metastatic variant was initially originated (both cell lines kindly provided by Dr Fabra at IDIBELL Institute, Hospitalet de Llobregat, Spain). Finally, HT29 human colon carcinoma cells obtained from the European Type Culture Collection (ECACC 91072201) were used as a positive control of TWEAK dependent Fn14 over-expressing cells to evaluate TWEAK-Fn14 axis of brain metastatic variants.
Appropriate cell culture conditions were established as the controls needed in the expression of genes with and without peptides and with and without TWEAK activation, both as pools and individually (see Supplementary Materials Figure S2). The protocol started with the seeding of 125,000 cells/well in 500 µL of culture media supplemented with 10% fetal bovine serum (CM+FBS10%) in 24-well dishes for 24 h before removing FBS (CM-FBS). After overnight starvation in CM-FBS culture, different peptide treatment conditions (at final concentration of 450 µM) were established in the presence or absence of TWEAK (25 ng/mL final concentration) (Peprotech EC, Ltd., London, UK). Some cells were treated with peptides at a single, unique, initial dose (time 0) while other were treated with repeated doses to account for the effect cell-culture degradation. These include a repeated treatment every hour (i.e., […]), every two hours (time 0, 2, and 4) and every three hours (time 0 and 3)—see Supplementary Materials Figure S2 for diagrammatic depiction. At time 6 (after six hours) cells were lysed and RNA extracted for transcriptomic analyses (see next). Cell were culture for six hours as this was the time needed to achieve the highest upregulation of the TWEAK-Fn14 axis upon TWEAK treatment as shown in previous time-course RT-PCR experiments (see Figure 2).
RNA from cells was extracted 6 h after treatments by direct lysis on the well. The RNeasy Micro kit (Qiagen, Hilden, Germany) was used to isolate total RNA from cell lysate following manufacturer’s protocols including an additional step of digestion with DNase I (Qiagen, Hilden, Germany). Total RNA concentration was measured in a NanoDrop 1000 spectrophotometer (Thermo Scientific, Waltham, MA, USA). […]

[2] = system: HT29 cells, Fn14 gene expression; experiment: Fn14 gene expression with TWEAK, HT29 (RT-PCR); format: cell-based, human; settings: HT29, TWEAK 25 ng/ml
Procedure: (§2) Figure 1 Characterization TWEAK-dependent/not dependent cells. (A) Representative images of Fn14 expression (pink) in BRV5, 435-P and HT29 cells labelled by immunofluorescence. The protein has similar expression in BRV5 and the positive control HT29 cells, and less expressed in 435-P. DAPI (blue) was used for nucleus identification. (B) RT-PCR analysis to quantify Fn14 gene expression of cells cultured in the presence (dark green) or absence (light green) of TWEAK (25 ng/mL) at 48 h. Up-regulation of Fn14 is observed only in HT29 and BRV5 cells. Bars and error bars represent the average and standard deviation as calculated from three replicates respectively. P values represented as: * - significant (Pvalue: 0.01 to 0.05) and **- very-significant (Pvalue: 0.001 to 0.01).
(§3) Since the transcriptional activation of Fn14 expression can be induced in cancer cells by the TWEAK-Fn14 interaction, either in a paracrine or autocrine manner, we investigated whether TWEAK transactivates Fn14 (TNFR2F12A) in BRV5 brain metastatic cells. We primed cells with TWEAK and analysed TNFR2F12A gene expression including in the analysis 435-Br1 cells, the first generation of brain metastatic cells BRV5.
as §1, with “Finally, HT29 human colon carcinoma cells obtained from the European Type Culture Collection (ECACC 91072201) were used as a positive control of TWEAK dependent Fn14 over-expressing cells to evaluate TWEAK-Fn14 axis of brain metastatic variants.” left out

[3] = system: 435-Br1 cells, TNFR2F12A gene expression; experiment: Fn14 gene expression with TWEAK, 435-Br1 (RT-PCR); format: cell-based, human; settings: for Normalized level of expression of Fn14 gene: 435-Br1, TWEAK 25 ng/ml
Procedure: as §2, §3, §1

[4] = system: BRV5 cells, Fn14 gene expression; experiment: Fn14 gene expression with TWEAK, BRV5 (RT-PCR); format: cell-based, human; settings: for Normalized level of expression of Fn14 gene: BRV5, TWEAK 25 ng/ml
Procedure: as §2, §3, §1

[5] = system: HT29 cells, NIK expression; experiment: Time-course RT-PCR of NIK (MAP4K4), HT29; format: cell-based, human; settings: TWEAK, 6 to 24 h
[6] = pools, BRV5 + TWEAK 25 ng/mL, 450 µM every hour

B1: tumour necrosis factor-like weak inducer of apoptosis (protein, UniProt O43508 94-249, looked up)
Tumor necrosis factor ligand …: SAPKGRKTRARRAIAAHYEVHPRPGQDGAQAGVDGTVSGWEEARINSSSPLRYNRQIGEFIVTRAGLYYLYCQVHFDEGKAVYLKLDLLVDGVLALRCLEEFSATAASSLGPQLRLCQVSGLLALRPGSSLRIRTLPWAHLKAAPFLTYFGLFQVH
- regulation of probe genes by pooled peptides ([1]; BRV5 + TWEAK 25 ng/mL, peptides 450 µM every hour, versus T): higher level of expression overall when compared to untreated and unstimulated cells
- downstream activation of MAP4K4 (NIK), TRAF2, and BIRC2 (IAP2) ([1]; TWEAK, BRV5): occurred at 6 h in BRV5 cells
- BIRC2 mRNA expression (normalized to NARS2) [1, 6]: 1.448
- HSP90B1 mRNA expression (normalized to NARS2) [1, 6]: 8.392
- IL6 mRNA expression (normalized to NARS2) [1, 6]: 0.0007818
- JUN mRNA expression (normalized to NARS2) [1, 6]: 0.04566
- MAP4K4 mRNA expression (normalized to NARS2) [1, 6]: 0.7707
- MAPK14 mRNA expression (normalized to NARS2) [1, 6]: 0.5877
- NFKB2 mRNA expression (normalized to NARS2) [1, 6]: 0.193
- TNFRSF12A mRNA expression (normalized to NARS2) [1, 6]: 0.06934
- TRAF2 mRNA expression (normalized to NARS2) [1, 6]: 0.0999
- BIRC2 expression Z-Score ([1]; pools): 1.233
- HSP90B1 expression Z-Score ([1]; pools): -0.5008
- IL6 expression Z-Score ([1]; pools): -1.234
- JUN expression Z-Score ([1]; pools): -1.012
- MAP4K4 expression Z-Score ([1]; pools): -0.5276
- MAPK14 expression Z-Score ([1]; pools): 0.2377
- NFKB2 expression Z-Score ([1]; pools): -0.03742
- TNFRSF12A expression Z-Score ([1]; pools): -0.4905
- TRAF2 expression Z-Score ([1]; pools): 1.245
- BIRC2 expression Z-Score ([1]; pools, listed as T): 1.2334
- HSP90B1 expression Z-Score ([1]; pools, listed as T): -0.5008
- IL6 expression Z-Score ([1]; pools, listed as T): -1.2337
- JUN expression Z-Score ([1]; pools, listed as T): -1.0121
- MAP4K4 expression Z-Score ([1]; pools, listed as T): -0.5276
- MAPK14 expression Z-Score ([1]; pools, listed as T): 0.2377
- NFKB2 expression Z-Score ([1]; pools, listed as T): -0.0374
- TNFRSF12A expression Z-Score ([1]; pools, listed as T): -0.4905
- TRAF2 expression Z-Score ([1]; pools, listed as T): 1.2452
- Normalized level of expression of Fn14 gene ([2]; technical replicate 1): 0.1964
- Normalized level of expression of Fn14 gene ([2]; technical replicate 2): 0.2154
- Normalized level of expression of Fn14 gene ([2]; technical replicate 3): 0.2052
- Normalized level of expression of Fn14 gene ([3]; technical replicate 1): 0.1600
- Normalized level of expression of Fn14 gene ([3]; technical replicate 2): 0.1676
- Normalized level of expression of Fn14 gene ([3]; technical replicate 3): 0.1719
- TNFR2F12A gene expression ([3]; TWEAK 25 ng/mL, 48 h, 435-Br1): no differences were found
- Normalized level of expression of Fn14 gene ([4]; technical replicate 1): 0.1340
- Normalized level of expression of Fn14 gene ([4]; technical replicate 2): 0.1202
- Normalized level of expression of Fn14 gene ([4]; technical replicate 3): 0.1441
- Fn14 transcriptional expression ([4]; TWEAK 25 ng/mL, 48 h, BRV5): significantly activated in BRV5 cells (p = 0.0031)
- NIK expression [5]: highest NIK expression, occurred 6 h after
